Measured values reported in US20230212304A1 (BIOSION, published 2023).

What was measured:
[1] = molecular target: T1, recombinant human CTLA4-his protein (Acro biosystems, Cat#CT4-H5229) (human, UniProt P16410 37-162); assay: BLI, Octet RED96; antibody on AHC sensor, CTLA4-his as analyte
T1 construct: bought recombinant protein; not shown: his tag
T1 sequence (looked up): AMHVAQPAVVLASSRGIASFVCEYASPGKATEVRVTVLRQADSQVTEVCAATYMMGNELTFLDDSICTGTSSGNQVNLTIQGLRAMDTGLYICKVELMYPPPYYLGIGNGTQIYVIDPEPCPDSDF
Method: (§1) Briefly, AHC biosensors (anti-human IgG Fc capture, from ForteBio) were presoaked with 10 mM glycine (pH 1.5) for 3 seconds, and then dipped in a well with running buffer (0.5% w/v BSA in PBST) for 3 seconds, the soaking and dipping steps were repeated for three times. […] A new baseline was run for 180 seconds in another well with running buffer. […] Finally, sensors were presoaked with 10 mM glycine (pH 1.5) for 3 seconds, and then were dipped in a well with running buffer for 3 seconds, the soaking and dipping steps repeated for three times. The association and dissociation curves were fit to a 1:1 Langmuir binding model using ForteBio Data Analysis 8.1.

[2] = molecular target: T2, recombinant human CTLA4 protein with human IgG1 Fc tag at the C-terminus (Acro biosystems, Cat#CT4-H5255) (human, UniProt P16410 37-162); assay: capture ELISA (plate coated with goat anti-human IgG F(ab')2 per paragraph 181), biotin human CTLA4-Fc, streptavidin-HRP, OD(450-630)
T2 construct: bought protein; also called human CTLA4-Fc; CTLA4-Fc; not shown: human IgG1 Fc tag at the C-terminus
T2 sequence (looked up): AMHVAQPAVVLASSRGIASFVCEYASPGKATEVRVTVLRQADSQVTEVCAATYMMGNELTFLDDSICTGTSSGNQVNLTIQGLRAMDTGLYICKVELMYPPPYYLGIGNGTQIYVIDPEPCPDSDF
Method: Plates were washed once with wash buffer (PBS+0.05% v/v Tween-20, PBST) and then blocked with 200 µl/well blocking buffer (PBST with 5% w/v non-fatty milk) for 2 hours at 37° C. […] After a final wash, plates were incubated with 100 µl/well substrate TMB (Innoreagents, Cat#TMB-S-002). The reaction was stopped in 15 minutes at room temperature with 50 µl/well 1M H₂SO₄, and the absorbance of the each well was read on a microplate reader using dual wavelength mode with 450 nm for TMB and 630 nm as the reference wavelength, then the OD (450-630) values were plotted against antibody concentration. Data was analyzed using Graphpad Prism software and EC₅₀ values were reported.
(§2) In the capture ELISA assay, the 96-well micro plates were coated with 2 µg/ml goat anti-human IgG (AffiniPure Goat Anti-Human IgG, F(ab′)₂ fragment specific, Jackson Immunoresearch, Cat#109-005-097) instead of the goat anti-mouse IgG F(ab′)₂ fragment, 100 µl/well.

[3] = molecular target: T2, recombinant human CTLA4 protein with …; assay: cell-based or functional assay
[4] = molecular target: T2, recombinant human CTLA4 protein with …; assay: capture ELISA: antibody captured on coated plate (anti-human IgG Fc for the chimeric antibodies), biotin human CTLA4-Fc, streptavidin-HRP, OD(450-630)
[5] = molecular target: T2, recombinant human CTLA4 protein with …; assay: cell based blocking FACS: antibody pre-mixed with human CTLA4-Fc, added to Daudi cells; blocked ligands: cell surface CD80/CD86
[6] = molecular target: T3, cynomolgus monkey CTLA4-his protein (Acro biosystems, Cat#CT4-C5227) (cynomolgus monkey, UniProt G7PL88 36-161); assay: SPR, Biacore; antibody captured on anti-human IgG CM5 chip, CTLA4-his as analyte
T3 construct: bought recombinant protein; also called Cynomolgus CTLA4-his; not shown: his tag
T3 sequence: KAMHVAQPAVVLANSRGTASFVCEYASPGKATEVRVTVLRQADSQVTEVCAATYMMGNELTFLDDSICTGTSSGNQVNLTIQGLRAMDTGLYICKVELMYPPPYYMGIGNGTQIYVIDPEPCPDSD
Method: (§3) Un-reacted moieties on the biosensor surface were blocked with ethanolamine. […] The antigen-antibody association kinetics was followed for 2 minutes and the dissociation kinetics was followed for 10 minutes. The association and dissociation curves were fit to a 1:1 Langmuir binding model using BIAcore evaluation software. […]

[7] = molecular target: T1, recombinant human CTLA4-his protein …; assay: as above
Method: as §3

[8] = molecular target: T2, recombinant human CTLA4 protein with …; assay: cell based blocking FACS: antibody pre-mixed with human CTLA4-Fc, added to Daudi cells; blocked ligands: cell surface CD80/CD86; remark: listed apart in the source
Method: Daudi cells were harvested from cell culture flasks at the log phase, washed twice and re-suspended in PBS containing 2% v/v Fetal Bovine Serum (FACS buffer). […] Cells were washed twice and re-suspended in FACS buffer. Fluorescence was measured using a Becton Dickinson FACS Canto II-HTS equipment. Data was analyzed using Graphpad Prism software and IC₅₀ values were reported.

[9] = molecular target: T2, recombinant human CTLA4 protein with …; assay: competitive ELISA: antibody pre-mixed with biotin human CTLA4-Fc, added to plate coated with the benchmark; competitor: coated Yervoy
Method: Plates were washed once with wash buffer, blocked with 200 µl PBST with 5% w/v non-fatty milk, incubated for 2 hours at 37° C., and washed 4 times.
After incubation at 37° C. for 40 minutes, plates were washed 4 times again using wash buffer. Then the plates were added and incubated with 100 µl/well streptavidin conjugated HRP (1:10000 dilution in PBST, Jackson Immuno Research, Cat#016-030-084, 100 µl/well) for 40 minutes at 37° C. Plates were finally washed using wash buffer. Finally, TMB was added and the reaction was stopped using 1M H₂SO₄, and the absorbance of the each well was read on a microplate reader using dual wavelength mode with 450 nm for TMB and 630 nm as the reference wavelength, then the OD (450-630) values were plotted against antibody concentration. Data was analyzed using Graphpad Prism software and IC₅₀ values were reported.
as §2

[10] = molecular target: T1, recombinant human CTLA4-his protein …; assay: BLI, Octet; antibody at 5 ug/ml on AHC sensor, CTLA4-his as analyte
Method: as §1

Kd [1]: 5.32 nM | koff [1]: 0.00166 s⁻¹ | kon [1]: 312000 M⁻¹ s⁻¹ | EC50 [2]: 0.575 nM | EC50 of IL-2 release (GS-J1 T cells + GS-C1/CD80 cells + human CTLA4-Fc, IL-2 HTRF) [3]: 82.1 nM | EC50 [4]: 0.992 nM | IC50 [5]: 12.6 nM | Kd [6]: 0.968 nM | koff [6]: 0.000505 s⁻¹ | kon [6]: 521000 M⁻¹ s⁻¹ | Kd [7]: 1.93 nM | koff [7]: 0.000404 s⁻¹ | kon [7]: 209000 M⁻¹ s⁻¹ | IC50 [8]: 6 nM | IC50 [9]: 0.785 nM | Kd [10]: < 0.001 nM | koff [10]: < 1e-07 s⁻¹ | kon [10]: 132000 M⁻¹ s⁻¹
B1: chimeric D1D5 anti-CTLA4 antibody (antibody, human IgG4 S228P, kappa, V domains shown)
VH: EVKLVESGGGLVKPGGSLKLSCAASGFTFSDYGMAWVRQAPGKGPEWVAFISNLAYSVYYADTETGRFTISREDAKNTLYLEMSSLRSEDTAMYYCARSGLPYAMDYWGQGTSVTVSS
VL: DIQMTQTTSSLSASLGDRVTISCRASQDISNYLNWYQQKPDGTVKLLIYYISRLHSGVPSRFSGSGSGTDFSLTISNLEQEDIATYFCQQGRMLPWTFGGGTRLEIKR
notes: mouse variable domains on human IgG4/kappa, made in 293F cells
